Target: the molecule itself
Test: SEC; HiLoad 26/60 Superdex 200, 20 mM Tris-HCl pH 7.5, 200 mM NaCl, 5 mM DTT; last step of the purification

B1: N-PAS domain of the human EAG channel (residues 1-146) (domain or fragment, UniProt O95259 1-146, looked up)
chain: MTMAGGRRGLVAPQNTFLENIVRRSNDTNFVLGNAQIVDWPIVYSNDGFCKLSGYHRAEVMQKSSTCSFMYGELTDKDTIEKVRQTFENYEMNSFEILMYKKNRTPVWFFVKIAPIRNEQDKVVLFLCTFSDITAFKQPIEDDSCK
notes: human ether-a-go-go potassium channel (hEAG), N-terminal residues 1-146 holding the PAS domain; amplified from a human cDNA library; calculated mass 16 933.16 Da; The crystal has six molecules per asymmetric unit; Only about residues 27/28 to 135/137 are built in the model; Residues left by PreScission cleavage are not described; also called hEAG N-PAS domain; PAS domain of hEAG; not shown: GST, …
B1 was tested, and the “stoichiometry N” value was 2.

— paper PMC4973297, “Crystal structure of the PAS domain of the hEAG potassium channel” (Acta Crystallographica. Section F, Structural Biology …, 2016)
